pKd: −log10 of the molar value.

From article PMC3834821 come the findings set out here.

The target of this series is T1, GST-DAZAP1 (UniProt Q9JII5).
T1 sequence: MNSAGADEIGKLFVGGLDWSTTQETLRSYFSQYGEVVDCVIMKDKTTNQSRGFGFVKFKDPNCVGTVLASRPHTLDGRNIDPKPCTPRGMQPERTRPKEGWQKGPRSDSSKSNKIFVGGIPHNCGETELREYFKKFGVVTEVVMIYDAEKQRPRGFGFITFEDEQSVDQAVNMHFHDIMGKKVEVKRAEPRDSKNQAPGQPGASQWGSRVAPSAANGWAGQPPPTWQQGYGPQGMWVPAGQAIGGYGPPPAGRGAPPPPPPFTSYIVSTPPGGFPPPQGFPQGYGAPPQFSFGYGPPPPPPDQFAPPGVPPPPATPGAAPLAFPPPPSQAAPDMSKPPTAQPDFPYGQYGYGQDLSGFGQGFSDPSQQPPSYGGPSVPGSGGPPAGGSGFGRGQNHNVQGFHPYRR
Description: EMSA. The conditions noted are these: 20 mM HEPES pH 7.6, 3 mM MgCl2, 40 mM KCl, 2 mM DTT, 5% glycerol, 5 mg/ml heparin; room temperature, 15 min; native 5% PAGE in 0.25x TBE; RNA 0.5-3.0 nM for Kd.

As usually defined, the pKd is the Kd on a negative log10 scale, so that one unit is a factor of ten. Take “AUCAUAGAGGUAGCAUUUUAGUUUAUUCUGUGAACUUCAAAAUUGACU [Crisp2-WtC]”: the negative logarithm of the Kd (pKd) is 7.82.

As for ACCUCCUAAUUUGUUCUUCAUUUCUU [Crem-dA], the pKd was 6.77.

For the sequence “ACCUCCUAAUGGUAAGUACCCUACUUGUUCUUCAUUUCUU [Crem-Wt]”, the pKd is 7.72.

For the sequence “AAGGUGAUAUUUAGUAUAUAGUGACACGUAAACAUUUAUG [Pot1a-Wt]”, the pKd was 8.11.

In the case of “AUCAUAGAAUUUUAGUUUAUUCUGUGAACUUCAAAAUUGACU [Crisp2-dC]”, the negative logarithm of the Kd (pKd) was 7.15.

“AAGUGUGAUAUAAUUCACUGGUAGUUUAUCAUAGAGGU [Crisp2-WtB]”: the pKd is 7.47.

With “AAGGUGAUAUUUAUGACACGUAAACAUUUAUG [Pot1a-dE]”, the pKd was 6.52.

For the sequence AAGUGUGAUAUAAUUCACUAUAGAGGU [Crisp2-dB], the pKd is 7.09.

As for “AAGGUGAUAUUUAGUAUAUAGUGACAAUUUAUG [Pot1a-dA]”, the pKd was 8.15.
